This note sets out measurements from patent publication US20150376269A1 (Regeneron, published 2015).

Assay [1] has as its target T1, serum resistance-associated protein (SRA) from Trypanosoma brucei rhodesiense, recombinant SRA (SEQ ID NO: … (Trypanosoma brucei rhodesiense, UniProt O96637 31-274)).
T1 construct: also called SRA protein
T1 sequence: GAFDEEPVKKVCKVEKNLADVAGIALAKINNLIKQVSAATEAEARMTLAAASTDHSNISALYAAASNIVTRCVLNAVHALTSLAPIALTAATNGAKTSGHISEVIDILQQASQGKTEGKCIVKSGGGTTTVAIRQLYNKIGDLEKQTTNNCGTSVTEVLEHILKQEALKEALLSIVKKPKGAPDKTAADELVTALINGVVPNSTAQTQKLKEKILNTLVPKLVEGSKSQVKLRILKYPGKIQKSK
Kind of assay: SPR, mAb captured, 25C, pH 7.4.
Method: (§1) Equilibrium dissociation constants (KD) values for SRA binding to selected purified anti-SRA monoclonal antibodies were determined using a real-time surface plasmon resonance biosensor assay on a Biacore T200 instrument. […] SRA binding to the captured monoclonal antibodies was monitored for 4 min while the dissociation of mAb bound SRA was monitored for 7 min. Two different assays formats were adopted to characterize kinetics of SRA binding—(i) regular kinetics and (ii) pH4.5 chase. Regular kinetics experiments were performed using pH7.4 buffer as the running buffer and both the association and dissociation was performed in pH7.4. For the chase format, association and dissociation were performed in pH7.4 buffer and pH4.5 buffer respectively.
(§2) Kinetic association (kₐ) and dissociation (kd) rate constants were determined by processing and fitting the data to a 1:1 binding model using Scrubber 2.0c curve fitting software. Only the dissociation rate (kd) was calculated for the pH4.5 chase experiment. Binding dissociation equilibrium constants (KD) and dissociative half-lives (t½) were calculated from the kinetic rate constants as:

The target of assay [2] is T1, serum resistance-associated protein …. Kind of assay: SPR, 25C, t1/2 pH 7.4 over pH 4.5. (In general: SPR reads the build-up and loss of mass on a sensor chip optically.)
Method: as §1, §2
Assay [3] has the same target. Kind of assay: SPR, mAb captured, 50 nM SRA, pH 4.5, 25C.
The target is the same in assay [4]. In words: SPR, mAb captured, 25C, assoc. pH 7.4, dissoc. pH 4.5.
Method: as §1, §2
Assay [5] shares this target. In words: SPR, mAb captured, pH 4.5, 25C; competitor biotin-apoL1 peptide.
The target is the same in assay [6]. In words: SPR, mAb captured, pH 4.5, 25C; competitor biotin-mutant apoL1 peptide.
Assay [7] deals with T2, SRA.mmh.
T2 construct: also called SRA.mmh (CHO)
T2 antigen: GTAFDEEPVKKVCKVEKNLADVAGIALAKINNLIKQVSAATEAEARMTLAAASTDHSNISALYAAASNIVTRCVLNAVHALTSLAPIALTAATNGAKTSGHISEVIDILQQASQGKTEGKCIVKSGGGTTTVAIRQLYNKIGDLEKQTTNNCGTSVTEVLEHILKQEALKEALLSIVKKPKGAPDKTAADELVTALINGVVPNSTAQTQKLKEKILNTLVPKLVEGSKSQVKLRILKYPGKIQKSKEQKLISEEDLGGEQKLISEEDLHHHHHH
Kind of assay: Octet, SRA.mmh captured on anti-Penta-His tips, mAb-1 at 50 ug/mL for 5 min, 25 C, pH 7.4. For orientation: Biolayer interferometry detects binding as a change in optical thickness at a sensor tip.

Assay [8] addresses T2, SRA.mmh. In words: Octet, mAb-2 at 50 ug/mL on captured SRA.mmh after negative control α-PRLR H1H6800P as mAb-1 (row 32 (-)).

B1: H1H10026P (antibody, V domains shown)
VH: QVQLVESGGGVVQPGRSLRLSCEASGFTFSIYGMHWVRQAPGKGLEWVAVISYDGTNRYYADSVKGRFTISRDNSKNTLYLQMNSLRAEDTAVYYCAKVNIWNFLFDYWGQGTLVTVSS
VL: EIVLTQSPGTLSLSPGERATLSCRASQSVSGNYLAWYQQKPGQAPRLLIYGPSSRATGIPDRFSGSGSGTDFTLTISRLEPEDFAVYYCQQYGTSLTFGGGTKVEIK
notes: Fully human antibody with human IgG1 Fc (prefix H1H)
Turning to B1, in assay [1], the Kd was at most 0.0814 nM, the kon stood at 614000 M⁻¹ s⁻¹ and the “t ½” value is at least 3.85 h. For the same molecule, the “t ½ ratio pH 7.4/pH 4.5” value in assay [2] is at least 2. In addition, in assay [3], the “50 nM SRA binding (RU)” value is 104 RU. Further, the “t ½” value in assay [4] was 1.75 h. Also, in assay [5], the “50 nM SRA + 5 uM apoL1 peptide binding (RU)” value was 84 RU and the “% Blocking, apoL1 peptide” value came to 19%. For the same molecule, in assay [6], the “50 nM SRA + 5 uM mutant apoL1 peptide binding (RU)” value worked out at 106 RU and the “% Blocking, Mutant apoL1 peptide” value is -2%. The “50 ug/mL mAb 1 Bound (nm)” value in the assay with SRA.mmh [7] came to 1.45 nm. Besides, in the assay with SRA.mmh [8], the “Binding of mAb-2 to SRA Pre-complexed with mAb-1” value (shortened to “Binding … with mAb-1”) came out at 1.64.

B2: H1H10045P (antibody, V domains shown)
VH: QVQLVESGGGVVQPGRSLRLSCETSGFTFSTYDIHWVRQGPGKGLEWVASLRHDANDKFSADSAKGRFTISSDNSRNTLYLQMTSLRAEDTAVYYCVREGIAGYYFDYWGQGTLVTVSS
VL: DIQMTQSPSFVSASVGDRVTISCRASQDIHTWLAWYQQKPGKAPNLLIYAASGLHSRAPSRFSGSGSGTDFTLTISSLQPEDFATYYCQKADRFPFTFGPGTKVDIK
notes: as for B1
For the molecule B2, in assay [1], the Kd is at most 0.108 nM, the kon worked out at 459000 M⁻¹ s⁻¹ and the “t ½” value was at least 3.85 h. Further, the “50 nM SRA binding (RU)” value in assay [3] stood at 82 RU. In addition, in assay [4], the “t ½” value is at least 3.85 h. Further, in assay [5], the “50 nM SRA + 5 uM apoL1 peptide binding (RU)” value is 52 RU and the “% Blocking, apoL1 peptide” value was determined as 36%. Besides, in assay [6], the “50 nM SRA + 5 uM mutant apoL1 peptide binding (RU)” value came out at 77 RU and the “% Blocking, Mutant apoL1 peptide” value amounted to 6%. Besides, the “50 ug/mL mAb 1 Bound (nm)” value with SRA.mmh [7] came out at 1.72 nm. Also, the “Binding … with mAb-1” value with SRA.mmh [8] came out at 1.4.

B3: H1H10064P (antibody, V domains shown)
VH: QVQLVQSGAEVKKPGSSVKVSCKASGGSFSSNVFSWVRQAPGQGLEWMGGIIPIFGSANYAQKFQGRVTITTDESTTTAYMELSSLRSEDTAVYYCAIGGTGPSGYNWNYGAFYIWGQGTMVTVSS
VL: DIQMTQSPSSLSASVGDRVTITCRASQGIRNDLGWYQQKPGIAPKRLIYAASSLQSGVPSRFSGSGSGTEFTLTISSLQPEDFATYYCLQHNSYPYTFGQGTKLEIK
notes: as for B1
On to B3, for which, in assay [1], the Kd is 0.546 nM, the kon was determined as 1.6e+06 M⁻¹ s⁻¹ and the “t ½” value was 0.217 h. The “t ½ ratio pH 7.4/pH 4.5” value in assay [2] stood at 9. In addition, the “50 nM SRA binding (RU)” value in assay [3] worked out at 76 RU. Also, in assay [4], the “t ½” value was 0.025 h. Also, in assay [5], the “50 nM SRA + 5 uM apoL1 peptide binding (RU)” value is -11 RU and the “% Blocking, apoL1 peptide” value came to 100%. In assay [6], the “50 nM SRA + 5 uM mutant apoL1 peptide binding (RU)” value worked out at 67 RU and the “% Blocking, Mutant apoL1 peptide” value worked out at 11%. The “50 ug/mL mAb 1 Bound (nm)” value with SRA.mmh [7] is 1.25 nm. For the same molecule, the “Binding … with mAb-1” value with SRA.mmh [8] worked out at 1.22.

B4: H2aM10200N (antibody, V domains shown)
VH: QVQLVQSGAEVKKPGSSVKVSCKASGGTFSSYAISWVRQAPGQGLEWMGGIIPFFGTATYAQKFQGRVTITTDESTRTVYMELSSLRYEDTAVYYCARWYSGYGGDFDYWGQGTLVTVSS
VL: AIQMTQSPSSLSASVGDRVTITCRASQGIRNDLGWFQQKPGKAPKLLIYAASSLQSGVPSRFSGSGSGTDFTLSISSLQPEDFATYYCLQDYSYPRTFGQGTKVEIK
notes: Hybridoma-derived chimeric antibody, human variable domains and mouse constant domains (mouse Fc, prefix H2aM); also called H2M10200N
B4: in assay [1], the Kd worked out at 0.0996 nM, the kon came out at 844000 M⁻¹ s⁻¹ and the “t ½” value worked out at 2.28 h. Also, the “t ½ ratio pH 7.4/pH 4.5” value in assay [2] was 77. For the same molecule, the “50 nM SRA binding (RU)” value in assay [3] was 159 RU. Also, the “t ½” value in assay [4] is 0.0333 h. Further, in assay [5], the “50 nM SRA + 5 uM apoL1 peptide binding (RU)” value is -2 RU and the “% Blocking, apoL1 peptide” value turned out to be 100%. Moreover, in assay [6], the “50 nM SRA + 5 uM mutant apoL1 peptide binding (RU)” value worked out at 150 RU and the “% Blocking, Mutant apoL1 peptide” value came out at 5%. Also, the “50 ug/mL mAb 1 Bound (nm)” value in the assay with SRA.mmh [7] stood at 1.59 nm. Also, the “Binding … with mAb-1” value with SRA.mmh [8] worked out at 1.28.

B5: H1H10031P (antibody, V domains shown)
VH: EVQLVESGGNVVRPGGSLRLSCSGSGFAFENYGMSWVRQGPGKGLEWVSNINWNGGSLNYVDSVKGRFTISRDNAKNSLYLQMNSLRAEDTALYYCARVIVYGMDVWGQGTTVTVSS
VL: DIQMTQSPSSLSASVGDRVTITCRASQGIRNGLGWFQQKPGKAPKRLIYATSSLQSGVPSRFSGSGSGTEFTLTISSLQPEDFATYYCLQSNSYPWTFGQGTKVEIK
notes: as for B1
With B5, in assay [1], the Kd is at most 0.095 nM, the kon turned out to be 526000 M⁻¹ s⁻¹ and the “t ½” value was at least 3.85 h. Besides, the “t ½ ratio pH 7.4/pH 4.5” value in assay [2] is at least 1. For the same molecule, in assay [3], the “50 nM SRA binding (RU)” value was 60 RU. For the same molecule, the “t ½” value in assay [4] stood at 3.32 h. Besides, in assay [5], the “50 nM SRA + 5 uM apoL1 peptide binding (RU)” value came to 45 RU and the “% Blocking, apoL1 peptide” value is 25%. For the same molecule, in assay [6], the “50 nM SRA + 5 uM mutant apoL1 peptide binding (RU)” value is 57 RU and the “% Blocking, Mutant apoL1 peptide” value turned out to be 6%. Moreover, in the assay with SRA.mmh [7], the “50 ug/mL mAb 1 Bound (nm)” value was found to be 1.59 nm. The “Binding … with mAb-1” value in the assay with SRA.mmh [8] came out at 1.58.

B6: H2aM10201N (antibody, V domains shown)
VH: QVQLLESGGGVVQPGKSLRLSCVASGSIFSIYGMNWVRQAPGKGLEWVASVSSDGSAKFYADSVKGRFTISRDNSNDTLFLQMTSLRAEDTAVYYCAKTLWNYLFDSWGQGTLVTVSS
VL: ENVLTQSPDTLSLSPGERATLSCRASQSITSNYLAWYQQKPGQTPRLLISFTSRRATGIPDRFSGSGSGTVFTLTISRLEPEDFAVYYCQQYGTSLTFGGGAKVEIR
notes: Chimeric antibody, human variable domains and mouse constant domains (mouse Fc, prefix H2aM); also called H2M10201N
Consider B6, for which, in assay [1], the Kd is 0.245 nM, the kon was 642000 M⁻¹ s⁻¹ and the “t ½” value amounted to 1.23 h. In addition, the “t ½ ratio pH 7.4/pH 4.5” value in assay [2] was 109. In addition, the “50 nM SRA binding (RU)” value in assay [3] was found to be 109 RU. The “t ½” value in assay [4] came out at 0.0117 h. Moreover, in assay [5], the “50 nM SRA + 5 uM apoL1 peptide binding (RU)” value came to 42 RU and the “% Blocking, apoL1 peptide” value is 61%. In assay [6], the “50 nM SRA + 5 uM mutant apoL1 peptide binding (RU)” value worked out at 108 RU and the “% Blocking, Mutant apoL1 peptide” value is 0%. In addition, the “50 ug/mL mAb 1 Bound (nm)” value in the assay with SRA.mmh [7] was 1.27 nm. Moreover, the “Binding … with mAb-1” value in the assay with SRA.mmh [8] is 1.31.

B7: H1H10058P (antibody, V domains shown)
VH: EVQLVESGGGLVQPGGSLRLSCAASGFTFNDFFMSWVRQAPGKGLEWVANLNQDGSERHYVDSVKGRFTISRDNAKNSLSLQMNSLRVEDTAVYYCAREGGDSWGQGTLVTVSS
VL: DIVMTQSPDSLAVSLGERVTINCKSSQSILYSANNKDYLAWFHQKPGQPPKLLIYWASIRESGVPDRISGSGSGTDFTLTISSLQAEDVAVYYCQQYYLFPPTFGQGTKVEIK
notes: as for B1
With B7, in assay [1], the Kd is at most 0.0786 nM, the kon worked out at 636000 M⁻¹ s⁻¹ and the “t ½” value was at least 3.85 h. In assay [2], the “t ½ ratio pH 7.4/pH 4.5” value is at least 1. Also, the “50 nM SRA binding (RU)” value in assay [3] was determined as 59 RU. Further, in assay [4], the “t ½” value is 4.05 h. Moreover, in assay [5], the “50 nM SRA + 5 uM apoL1 peptide binding (RU)” value was 57 RU and the “% Blocking, apoL1 peptide” value came to 4%. In assay [6], the “50 nM SRA + 5 uM mutant apoL1 peptide binding (RU)” value amounted to 56 RU and the “% Blocking, Mutant apoL1 peptide” value amounted to 5%. Moreover, in the assay with SRA.mmh [7], the “50 ug/mL mAb 1 Bound (nm)” value worked out at 1.44 nm. The “Binding … with mAb-1” value with SRA.mmh [8] was found to be 1.27.

B8: H1H10056P (antibody, V domains shown)
VH: QVQLVESGGGVVQPGRSLRLSCSASGFTFSLYGMHWIRQAPGKGLEWVAVISYDGSNTYYGDSVKGRFTISRDNSKNTLYLQMNSLRTEDTAIYYCAKVYNWNYLFDYWGQGTLVTVSS
VL: EIVLTQSPDTLSLSPGERATLSCRASQNVNNNFLAWYQQKPGQAPRLLIYGASSRATDIPERFSGSGSGTDFTLTISRLEPEDFAVYYCLHYVNSRTFGQGTKVEIK
notes: as for B1
For B8, in assay [1], the Kd is at most 0.134 nM, the kon came out at 372000 M⁻¹ s⁻¹ and the “t ½” value was at least 3.85 h. Also, the “t ½ ratio pH 7.4/pH 4.5” value in assay [2] is at least 31. For the same molecule, in assay [3], the “50 nM SRA binding (RU)” value worked out at 72 RU. Also, the “t ½” value in assay [4] stood at 0.117 h. For the same molecule, in assay [5], the “50 nM SRA + 5 uM apoL1 peptide binding (RU)” value was -4 RU and the “% Blocking, apoL1 peptide” value was determined as 100%. Besides, in assay [6], the “50 nM SRA + 5 uM mutant apoL1 peptide binding (RU)” value came to 67 RU and the “% Blocking, Mutant apoL1 peptide” value stood at 7%. Besides, the “50 ug/mL mAb 1 Bound (nm)” value with SRA.mmh [7] amounted to 1.3 nm. In the assay with SRA.mmh [8], the “Binding … with mAb-1” value was 1.28.

In general, Kd refers to the equilibrium constant for the complex coming apart. One may read the kon as the rate constant with which the complex forms.
